# T1: CXCR1 (UniProt P25024 1-350, limits assumed)
# T1 construct: whole, on cells; DiscoveRx PathHunter cell line; any reporter tag on the receptor is not described; also called CXCR1 receptor; CXCR1-U2OS
# T1 sequence (looked up): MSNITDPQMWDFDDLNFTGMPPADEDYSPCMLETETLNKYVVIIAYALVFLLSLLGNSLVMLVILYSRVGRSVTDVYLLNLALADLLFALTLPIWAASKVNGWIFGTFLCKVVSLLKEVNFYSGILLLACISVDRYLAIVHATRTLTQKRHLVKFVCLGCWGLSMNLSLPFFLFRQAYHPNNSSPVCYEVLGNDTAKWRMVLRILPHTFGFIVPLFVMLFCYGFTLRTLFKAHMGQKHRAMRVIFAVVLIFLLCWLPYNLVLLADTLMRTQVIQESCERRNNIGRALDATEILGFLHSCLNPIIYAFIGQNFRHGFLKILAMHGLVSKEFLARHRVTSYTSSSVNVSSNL
# Molecular target: T1, CXCR1
# Assay: flow cytometry, supernatant at 5 nM IgG
row,Binder,Specific Binding (CXCR1-Cell median AFU / Parental Cell median AFU)
1,"VH4-34+CDR3-IL8_CDR1-G31DY32K_CDR2-E50S_Q5RQ6E / VL1-51 I29V, N32G, K46R, L47T, D51G, N52D, N53T IgG (antibody) VH: QVQLREWGAGLLKPSETLSLTCAVYGGSFSDKYWSWIRQPPGKGLEWIGSINHSGSTNYNPSLKSRVTISVDTSKNQFSLKLSSVTAADTAVYYCTSVHQETKKYQSPRSAKELRCQCIKTYSKPFHPKFIKELRVIESGPHCANTEIIVKLSDGRELCLDPKENWVQRVVEKFLKRAENSGSGSYTYNYEWHVDVWGQGLLVTVSS light: QSVLTQPPSVSAAPGQKVTISCSGSSSNVGNGYVSWYQQLPGTAPRTLIYGDTKRPSGIPDRFSGSKSGTSATLGITGLQTGDEADYYCASAEDSSSNAVFGSGTTLTVLGQPKAAPSVTLFPPSSEELQANKATLVCLISDFYPGAVTVAWKADSSPVKAGVETTTPSKQSNNKYAASSYLSLTPEQWKSHRSYSCQVTHEGSTVEKTVAPTECS",1
2,"VH4-34+CDR3-IL8_CDR1-G31DY32K_Q5RQ6E / VL1-51 S2A, T5N, P8S, A12G, A13S, P14L, D51G, N52D, N53T IgG (antibody) VH: QVQLREWGAGLLKPSETLSLTCAVYGGSFSDKYWSWIRQPPGKGLEWIGEINHSGSTNYNPSLKSRVTISVDTSKNQFSLKLSSVTAADTAVYYCTSVHQETKKYQSPRSAKELRCQCIKTYSKPFHPKFIKELRVIESGPHCANTEIIVKLSDGRELCLDPKENWVQRVVEKFLKRAENSGSGSYTYNYEWHVDVWGQGLLVTVSS light: QAVLNQPSSVSGSLGQKVTISCSGSSSNIGNNYVSWYQQLPGTAPKLLIYGDTKRPSGIPDRFSGSKSGTSATLGITGLQTGDEADYYCASAEDSSSNAVFGSGTTLTVLGQPKAAPSVTLFPPSSEELQANKATLVCLISDFYPGAVTVAWKADSSPVKAGVETTTPSKQSNNKYAASSYLSLTPEQWKSHRSYSCQVTHEGSTVEKTVAPTECS",2
3,"VH4-34+CDR3-IL8_CDR2-Cow_Q5RQ6E / VL1-51 S2A, T5N, P8S, A12G, A13S, P14L, K46R, L47T, D51G, N52D, N53T, K54S, P56A IgG (antibody) VH: QVQLREWGAGLLKPSETLSLTCAVYGGSFSGYYWSWIRQPPGKGLEWLGSIDTGGNTGYNPSLKSRVTISVDTSKNQFSLKLSSVTAADTAVYYCTSVHQETKKYQSPRSAKELRCQCIKTYSKPFHPKFIKELRVIESGPHCANTEIIVKLSDGRELCLDPKENWVQRVVEKFLKRAENSGSGSYTYNYEWHVDVWGQGLLVTVSS light: QAVLNQPSSVSGSLGQKVTISCSGSSSNIGNNYVSWYQQLPGTAPRTLIYGDTSRASGIPDRFSGSKSGTSATLGITGLQTGDEADYYCASAEDSSSNAVFGSGTTLTVLGQPKAAPSVTLFPPSSEELQANKATLVCLISDFYPGAVTVAWKADSSPVKAGVETTTPSKQSNNKYAASSYLSLTPEQWKSHRSYSCQVTHEGSTVEKTVAPTECS",1
4,"VH4-34+CDR3-IL8_Q5RQ6E / VL1-51 S2A, T5N, P8S, A12G, A13S, P14L, K46R, L47T, D51G, N52D, N53T IgG (antibody, nt HC 490, LC 486) VH: QVQLREWGAGLLKPSETLSLTCAVYGGSFSGYYWSWIRQPPGKGLEWIGEINHSGSTNYNPSLKSRVTISVDTSKNQFSLKLSSVTAADTAVYYCTSVHQETKKYQSPRSAKELRCQCIKTYSKPFHPKFIKELRVIESGPHCANTEIIVKLSDGRELCLDPKENWVQRVVEKFLKRAENSGSGSYTYNYEWHVDVWGQGLLVTVSS light: QAVLNQPSSVSGSLGQKVTISCSGSSSNIGNNYVSWYQQLPGTAPRTLIYGDTKRPSGIPDRFSGSKSGTSATLGITGLQTGDEADYYCASAEDSSSNAVFGSGTTLTVLGQPKAAPSVTLFPPSSEELQANKATLVCLISDFYPGAVTVAWKADSSPVKAGVETTTPSKQSNNKYAASSYLSLTPEQWKSHRSYSCQVTHEGSTVEKTVAPTECS",10
5,"VH4-34+CDR3-IL8_CDR1-Cow_CDR2-Cow_Q5RQ6E / VL1-51 I29V, N32G, K46R, L47T, D51G, N52D, N53T IgG (antibody) VH: QVQLREWGAGLLKPSETLSLTCTASGFSLSDKAVGWIRQPPGKGLEWLGSIDTGGNTGYNPSLKSRVTISVDTSKNQFSLKLSSVTAADTAVYYCTSVHQETKKYQSPRSAKELRCQCIKTYSKPFHPKFIKELRVIESGPHCANTEIIVKLSDGRELCLDPKENWVQRVVEKFLKRAENSGSGSYTYNYEWHVDVWGQGLLVTVSS light: QSVLTQPPSVSAAPGQKVTISCSGSSSNVGNGYVSWYQQLPGTAPRTLIYGDTKRPSGIPDRFSGSKSGTSATLGITGLQTGDEADYYCASAEDSSSNAVFGSGTTLTVLGQPKAAPSVTLFPPSSEELQANKATLVCLISDFYPGAVTVAWKADSSPVKAGVETTTPSKQSNNKYAASSYLSLTPEQWKSHRSYSCQVTHEGSTVEKTVAPTECS",1
6,"VH4-34+CDR3-IL8_CDR1-G31DY32K_CDR2-E50S_Q5RQ6E / VL1-51 S2A, T5N, P8S, A12G, A13S, P14L, K46R, L47T, D51G, N52D, N53T, K54S, P56A IgG (antibody) VH: QVQLREWGAGLLKPSETLSLTCAVYGGSFSDKYWSWIRQPPGKGLEWIGSINHSGSTNYNPSLKSRVTISVDTSKNQFSLKLSSVTAADTAVYYCTSVHQETKKYQSPRSAKELRCQCIKTYSKPFHPKFIKELRVIESGPHCANTEIIVKLSDGRELCLDPKENWVQRVVEKFLKRAENSGSGSYTYNYEWHVDVWGQGLLVTVSS light: QAVLNQPSSVSGSLGQKVTISCSGSSSNIGNNYVSWYQQLPGTAPRTLIYGDTSRASGIPDRFSGSKSGTSATLGITGLQTGDEADYYCASAEDSSSNAVFGSGTTLTVLGQPKAAPSVTLFPPSSEELQANKATLVCLISDFYPGAVTVAWKADSSPVKAGVETTTPSKQSNNKYAASSYLSLTPEQWKSHRSYSCQVTHEGSTVEKTVAPTECS",3
7,"VH4-34+CDR3-IL8_CDR2-E50S_Q5RQ6E / VL1-51 S2A, T5N, P8S, A12G, A13S, P14L, K46R, L47T, D51G, N52D, N53T, K54S, P56A IgG (antibody) VH: QVQLREWGAGLLKPSETLSLTCAVYGGSFSGYYWSWIRQPPGKGLEWIGSINHSGSTNYNPSLKSRVTISVDTSKNQFSLKLSSVTAADTAVYYCTSVHQETKKYQSPRSAKELRCQCIKTYSKPFHPKFIKELRVIESGPHCANTEIIVKLSDGRELCLDPKENWVQRVVEKFLKRAENSGSGSYTYNYEWHVDVWGQGLLVTVSS light: QAVLNQPSSVSGSLGQKVTISCSGSSSNIGNNYVSWYQQLPGTAPRTLIYGDTSRASGIPDRFSGSKSGTSATLGITGLQTGDEADYYCASAEDSSSNAVFGSGTTLTVLGQPKAAPSVTLFPPSSEELQANKATLVCLISDFYPGAVTVAWKADSSPVKAGVETTTPSKQSNNKYAASSYLSLTPEQWKSHRSYSCQVTHEGSTVEKTVAPTECS",1
8,"VH4-34+CDR3-IL8_CDR1-G31DY32K_Q5RQ6E / VL1-51 S2A, T5N, P8S, A12G, A13S, P14L, K46R, L47T, D51G, N52D, N53T, K54S, P56A IgG (antibody) VH: QVQLREWGAGLLKPSETLSLTCAVYGGSFSDKYWSWIRQPPGKGLEWIGEINHSGSTNYNPSLKSRVTISVDTSKNQFSLKLSSVTAADTAVYYCTSVHQETKKYQSPRSAKELRCQCIKTYSKPFHPKFIKELRVIESGPHCANTEIIVKLSDGRELCLDPKENWVQRVVEKFLKRAENSGSGSYTYNYEWHVDVWGQGLLVTVSS light: QAVLNQPSSVSGSLGQKVTISCSGSSSNIGNNYVSWYQQLPGTAPRTLIYGDTSRASGIPDRFSGSKSGTSATLGITGLQTGDEADYYCASAEDSSSNAVFGSGTTLTVLGQPKAAPSVTLFPPSSEELQANKATLVCLISDFYPGAVTVAWKADSSPVKAGVETTTPSKQSNNKYAASSYLSLTPEQWKSHRSYSCQVTHEGSTVEKTVAPTECS",2
9,"VH4-34+CDR3-IL8_CDR1-Cow_Q5RQ6E / VL1-51 S2A, T5N, P8S, A12G, A13S, P14L, K46R, L47T, D51G, N52D, N53T, K54S, P56A IgG (antibody) VH: QVQLREWGAGLLKPSETLSLTCTASGFSLSDKAVGWIRQPPGKGLEWIGEINHSGSTNYNPSLKSRVTISVDTSKNQFSLKLSSVTAADTAVYYCTSVHQETKKYQSPRSAKELRCQCIKTYSKPFHPKFIKELRVIESGPHCANTEIIVKLSDGRELCLDPKENWVQRVVEKFLKRAENSGSGSYTYNYEWHVDVWGQGLLVTVSS light: QAVLNQPSSVSGSLGQKVTISCSGSSSNIGNNYVSWYQQLPGTAPRTLIYGDTSRASGIPDRFSGSKSGTSATLGITGLQTGDEADYYCASAEDSSSNAVFGSGTTLTVLGQPKAAPSVTLFPPSSEELQANKATLVCLISDFYPGAVTVAWKADSSPVKAGVETTTPSKQSNNKYAASSYLSLTPEQWKSHRSYSCQVTHEGSTVEKTVAPTECS",3
10,"VH4-34+CDR3-IL8_CDR1-G31DY32K_CDR2-E50S_Q5RQ6E / VL1-51 S2A, T5N, P8S, A12G, A13S, P14L, D51G, N52D, N53T IgG (antibody) VH: QVQLREWGAGLLKPSETLSLTCAVYGGSFSDKYWSWIRQPPGKGLEWIGSINHSGSTNYNPSLKSRVTISVDTSKNQFSLKLSSVTAADTAVYYCTSVHQETKKYQSPRSAKELRCQCIKTYSKPFHPKFIKELRVIESGPHCANTEIIVKLSDGRELCLDPKENWVQRVVEKFLKRAENSGSGSYTYNYEWHVDVWGQGLLVTVSS light: QAVLNQPSSVSGSLGQKVTISCSGSSSNIGNNYVSWYQQLPGTAPKLLIYGDTKRPSGIPDRFSGSKSGTSATLGITGLQTGDEADYYCASAEDSSSNAVFGSGTTLTVLGQPKAAPSVTLFPPSSEELQANKATLVCLISDFYPGAVTVAWKADSSPVKAGVETTTPSKQSNNKYAASSYLSLTPEQWKSHRSYSCQVTHEGSTVEKTVAPTECS",1
11,"VH4-34+CDR3-IL8_Q5RQ6E / VL1-51 S2A, T5N, P8S, A12G, A13S, P14L, K46R, L47T, D51G, N52D, N53T, K54S, P56A IgG (antibody) VH: QVQLREWGAGLLKPSETLSLTCAVYGGSFSGYYWSWIRQPPGKGLEWIGEINHSGSTNYNPSLKSRVTISVDTSKNQFSLKLSSVTAADTAVYYCTSVHQETKKYQSPRSAKELRCQCIKTYSKPFHPKFIKELRVIESGPHCANTEIIVKLSDGRELCLDPKENWVQRVVEKFLKRAENSGSGSYTYNYEWHVDVWGQGLLVTVSS light: QAVLNQPSSVSGSLGQKVTISCSGSSSNIGNNYVSWYQQLPGTAPRTLIYGDTSRASGIPDRFSGSKSGTSATLGITGLQTGDEADYYCASAEDSSSNAVFGSGTTLTVLGQPKAAPSVTLFPPSSEELQANKATLVCLISDFYPGAVTVAWKADSSPVKAGVETTTPSKQSNNKYAASSYLSLTPEQWKSHRSYSCQVTHEGSTVEKTVAPTECS",3

# Molecular target: T1, CXCR1
# Assay: flow cytometry, supernatant at 5 nM IgG
# Remark: another data set of the same source
row,Binder,Specific Binding (CXCR1-Cell median AFU / Parental Cell median AFU)
1,"VH4-34+CDR3-IL8_CDR1 Cow_CDR2 E50S / VL1-51 S2A, T5N, P8S, A12G, A13S, P14L, D51G, N52D, N53T IgG (antibody) VH: QVQLQQWGAGLLKPSETLSLTCTASGFSLSDKAVGWIRQPPGKGLEWIGSINHSGSTNYNPSLKSRVTISVDTSKNQFSLKLSSVTAADTAVYYCTSVHQETKKYQSPRSAKELRCQCIKTYSKPFHPKFIKELRVIESGPHCANTEIIVKLSDGRELCLDPKENWVQRVVEKFLKRAENSGSGSYTYNYEWHVDVWGQGLLVTVSSAS light: QAVLNQPSSVSGSLGQKVTISCSGSSSNIGNNYVSWYQQLPGTAPKLLIYGDTKRPSGIPDRFSGSKSGTSATLGITGLQTGDEADYYCASAEDSSSNAVFGSGTTLTVLGQPKAAPSVTLFPPSSEELQANKATLVCLISDFYPGAVTVAWKADSSPVKAGVETTTPSKQSNNKYAASSYLSLTPEQWKSHRSYSCQVTHEGSTVEKTVAPTECS",6

# — patent US20230287598A1 (TAURUS BIOSCIENCES, published 2023)
